Measurements from the domain aggregation screens of Martell et al. (2025).

Experiment: soluble fraction after stress (log2 fold change); higher = more stays soluble; pooled small domains, quantitative proteomics
Conditions: stress: 75 degC
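Also: 20 min heating vs room temperature control held 20 min.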

| Sequence | soluble fraction (log2) |
| --- | --- |
| HMFNDPTMEDALVNLKGITNEVLSYLSSSKIKKLEELAEMSVPELKDIVENISDDEASALIMEARKPWF | -0.373 |
| HMFNEFEDIPDIISAEGIDPAMREEVAANLKKYYKNPDAMLALAPLEREYYEKLVGILSEKIELKKEN | 0.802 |
| HMFNFPEEVRVQLAKSEQLRNLLIPMSETVRDALSGEELWFGRTIFNTTSKKIESWTNPGVWVE | -1.39 |
| HMFNIIARQEIDEILYEYKIENSEDYKNRDPEELAEIYENIKTVQENHDLSDDDVEELLKSIFSDY | -1.25 |
| HMFNKTKVPNFIDMNYYEEIEGNSEYDKFNFADPITKNDDTKAPGTVIDQTPEKGTRIDEEKTVIQLTIA | 0.114 |
| HMFNRAVSDNEALQVREHFDRDATVMSLAKKYGVSTVTIQRILLGKTYRNVGGPLFDKATLKKRMGN | -1.2 |
| HMFNVKAYEKAVKSYITKRKPLGEALDEEIMDELSVKFGIVDDALEDLFKQIQDAGISIVDKDGNPSPLAL | -0.792 |
| HMFPELEPDEQLIADLLRKTNNLQINIITVRTGLPINRVTALLFQMEMKGVVRPLAGGTYHLLV | -2.14 |
| HMFPELSPEEQLIVEVLSKTNDLQVNLISVKTNIDISRLTSLLFTLEMKGVIKTFAGGMYHLL | -1.19 |
| HMFPSLSPEEQAVVDVLQRNNDLQINMLSVQSGLTISRLTALLFQLEMKGVIKPLAGGMYHLL | -0.711 |
| HMFPTLSPEEQRIVDQLAKENDLQANVIALRTALTIPQISALLFSLEMKGMVRLYAGGTYHLI | -4.6 |
| HMFQPEQISKLNELETLVLDFIIKSPDKVQKATIRSLATQLHVSTTTIVRMSTKLGFNGWSELKFFLKNQS | -1.93 |
| HMFRDFSETLLRKLQAAGGFLPFTDKTDAEAIAEHFQVSKKTFKRAVGTLYKQRRILIDDEGITLIG | -1.59 |
| HMFRPDYYEILQVDRHASPEVITAAYRQLLSIYNSEQDGNKQMIKLIQEAYGVLGDSQDRWLYDSWLDNN | -1.34 |
| HMFRSNAERAAHLASALPRAEAELAALQARGAATSENIYLRSSYFDALRYTEELRAAKRAQDALQGA | 0.195 |
| HMFSAASSQISSYVRSVVDKAQTYEQAYEILAKNPLGFKLDALEDELFRIIANAEILGADDDE | -0.976 |
| HMFSNATISGLKAGALVRVYNISGVAVSTLTADAEGKVSVDLNNLPKGVYILSTPSKSFKVLN | -2.65 |
| HMFSWRQHLDHFGFSDEIKKRLADAVFLNDDWNEIDRGVLTKEELLARFIENDPGIEKEIYMVMENIN | -0.835 |
| HMFYPIAHTLTKLNIRSGPGEQYQKLATFENNHDLVVLTQQNEWVQVRGKSDEQVIIGWVHSSFLSPT | -2.8 |
| HMFYQLTENQRRILSSLEQNPRVSAAHLAEEIGISSRKVENNLKKLKEIGLLQRHGSPRKGYWSINQGW | -0.938 |
| HMGAAAQLLHAVVLRVPAEDTMKFVSETPELRRYLGAPLGPTAALVRPGQEQELAAALQAHGILVEFDE | -0.45 |
| HMGAAITEAEAKQIALDHAGVSESETERMRVKLGRDDGVQEYEVNFYVGNREYDYDINAATGEIRSHDSE | 0.107 |
| HMGADPTTWPEIDAFVGRVAVTATGLFPSGQVEIDGRRFEARLAFGVAEPGARVVVRRRTDFGLLVEKETR | -2.38 |

| Sequence | soluble fraction (log2) |
| --- | --- |
| HMGADRLVGMTAIVTATIDPNDTDRKGRVQVEGEVWSALSDGRLIITEGSKVRITEMHGTRVRVEAI | -0.685 |
| HMGAEWTEMRVWTSTSGSKVTAEASSLTNGQVTLETKSGKRITLSIRKLVEADQKFLEAHFSK | -1.33 |
| HMGAGLLEPEPLKIEIQETQERLQKLQKALERDTETADSKERIKRAIEAHKARISQLQGLIE | 0.219 |
| HMGAKVFTVPNLIGKYAIEAGIILKKEGLSEGEVKEENSDKYAAGQIIDQYPAADSPAKENDKINYVVSIG | -0.066 |
| HMGANSAYMAMRDRIQQRLLAELSPGVTRSDTAEVRRVVERIFNETTAELGLPLSRLERNDIFDLVLADIL | -1.85 |
| HMGAPLAVGDSVRVVVSGPRAFVYTAPNGALSGAVRNGAAFTVLELSPDNTWARIGSGEWIKVEFLATG | -0.919 |
| HMGATYSQFLDQVDGGNVQKVTFSGDMRSGTNQISYTTRSGQSATITAPMDRDLINILRAKNVEIVQEEP | 0.232 |
| HMGAWQQTGFFRNRENAESLAEVLRQRGFSPVVREDTRPSGTVYYAVLVPDDGTTAARLKDAGIDSYPV | 0.121 |
| HMGDDYFTILGIERDATTDEIRSAYRRLSKKIHPDAQGSSALFRQVQEAYETLIDPSSRARYVAELNASQG | 0.00161 |
| HMGDERDRLLLARGKRIYQELIGSDRENVAAALREFEAVLAVNNRRAIHVMRQRLAELFGVYEEFLNEEFL | -4.51 |
| HMGDEVAVTEILVKVGDTVEADQSLLTVEGDKASMEVPAPFAGVVKAIQVQLGDKVVTGSPIMLFEV | 0.073 |
| HMGDFNYVMPDFRGLEAHDVSSFLNRNGFLLRPTEHEVSFTQRPGLILMHYPEPGYPFSRSSPITLVVS | -0.947 |
| HMGDGMEVWVNGSPVNLTGKDSFIFVDIFDFIDFDLTASKGRLIVIKVNGEYAEYTRPLHNGDTIEIYWEE | 0.0346 |
| HMGDGRVGVITASIAYEYAKEVFPEGTSFLKLGLTFPLPMDLIRDFASKVEKLYVIEELEPL | -0.122 |
| HMGDHYTALGLSIDATPEEIRSAYFLAARRSHPDANPDAQTTEWFLRVQEAYDILSNPRRRAEYDASLP | -0.6 |
| HMGDKRPIAVGDYVKLEGQDTPGQVLSISGKNATVGFGMLKTTVKLDRLRHTMAKPQTGASAGVR | -0.293 |
| HMGDKVTIPNLIDMKLTDAQNQYKPQGFSIVKNGERESDKEAGTILEQDKAAGTEISGKDIRIFVVVSSGS | 0.0688 |
| HMGDLAAAGNHTLEVMGFPQHPDESYRHFVGNGIPKLIERMLPAGHDKETEQKAYDIFMEYYSAHK | 0.609 |
| HMGDPMAIMQLSSNTTPEYWEAYQKYHIQEYEQSNFIRYVNGISVLDDDFVDKVLITIDQHGRIFSELKS | -3.21 |
| HMGDSEMPVSEVVRLAKLDQISSIEISGTKLTIITNNLETYTSRIEENSTIIEILQRAGVDIGGLEIYPHG | -1.53 |
| HMGDVSGFLRGVLADGPVPAKTVFSEASGAGYSRDQIQRAARKIGVERRKTGMAGGWVWELEP | -0.148 |
| HMGEAYVVPNVKNKTLGEAQLALHNQKLEGLVVDSSYVKGLPDGMILDQNPAGGARVKEGRTIYLTITTS | -0.0978 |
| HMGEDFPYVAYATDSVRLRSKPSSSGDILAVIRQGDAVLITGSDGNYKIVEYEGRKGYVISAFLSQTP | -1.15 |

| Sequence | soluble fraction (log2) |
| --- | --- |
| HMGEDLTIDQLAAEVDMTVRNIRAHQARGLLPPPTIKGRIGYYGPLHRRRLQQIRAMQEEGLNLAAIAKVV | -0.889 |
| HMGEDPYQMLGLTRQASDEEVRLAWRKLMRENHPDSLASRGVPQEFVKRATEQVAQINAAWDRIKRERG | -0.25 |
| HMGEELIEIQNLRNKERREAEAILKNLDLVPVIQEQFDDTVPINRVITTDPGPDSTVKKGTTVMIYVSKGP | 0.415 |
| HMGEENLKYPLLTDGSVKTTVLEAIDKDEKWLREELAKQGYDDLSKLFLVDYLGGQLVVTPY | 0.144 |
| HMGEESIAELISNPKLSDAKRTVILDLLSRGLTVDQIKPYIQSDDPYTAEQLQFELYKLFFTQI | -0.578 |
| HMGEGRVRLAQEAANRFMTAMAGDRPGFEEAGRALFAGDRARFHAETEGWPEDIRDHARRLAEPALQ | 0.144 |
| HMGEIILVPDVKAQGVSDARYTLNQAGLDAVIADSSYNRNSPPGAVLEQMPAPGSKVKSGHAIYLIINTT | 0.138 |
| HMGELTSILVATKQIEPGETLSSSNTQVKSWISDLIPEGAITNPESVMGRTVSSVIGVGMPVVSLHLR | 0.462 |
| HMGELVIPPLRERTVVDAVAEAERLGFVVQVEPVASSLPEGRVLGQSPEPGTRARKSQVVVLQVSRG | -0.614 |
| HMGEPLTVVAAAGGDRLDRWLAGQLAGRSRAEIQRWIEAGQVTLAGRSLKASYRLSAGDAIDVAIPPPE | -0.366 |
| HMGEPVEIEEPITVRSLSEALGLKSSAIISHLMRQGVFATINQNLDKETAELIAAEYGIELRIK | -0.0834 |
| HMGETDDDFRELEEFVEKTKFDKLGTFMYSKEEGTPAARLPEQIHGNTKKSRYNKIMSIQQKVSNEN | 0.253 |
| HMGETPEILRDWEAAQNAVNDMLSKYAPGGYMGKIIYPLLTPLKERLEAGERTPDLYNAIVEAT | 0.119 |
| HMGETYTIPDVRGYTLEDAMELPEIKENGFTIIEGRQIVDADVPVGQIISQTPEAESIAKSNVKEITVNIS | 0.239 |
| HMGEVPVETKDGIKVHVHTVDKSQTAYGISRLYNITLNELYESNPEAKLELSIGQKLYFPVK | -0.199 |
| HMGEVVRAPMPGNVLKMEVAQGQEVEEGDLLLVLEAMKMENDIVAPKGGIVIQLVVDKGMVVETDDPLVVI | -0.339 |
| HMGEWNSVFSVPSSVVDKHLKTASSVYVKVLLVILRNAGNRISDQQISEQLSVPVDEVQEAIRYWNAAGIF | -2.76 |
| HMGFAANLSRLMEYHNISMYRLAKEVGVHQTTVKNWLEEESEPKIAALEKIVGLLGVSYDELLG | -4.58 |
| HMGFLTGNTQGEVNRKTKNQMVNIFLPTTPNPTSGFLLFVPKKDILRLTMTVEEGIKMIISAGMLTPS | -0.527 |
| HMGFTDREREIIRNDLVATGRELFGTFGLKKTSIEDLTKAVGIAQGSFYTFFNSKEELYLEVMDREGEA | -1.14 |
| HMGGALSPDFGWLAMIDPDEGRAITLYDIASGEAIAVLDTHEARVAALAWSPDGTRLASGDQNGLIVQWEI | -0.31 |
| HMGGEEPYGSGSLRLAAGAVVPSGYTIKGNEDSMLYHTTESPWYKQTIAEVWFNAESAAQRAGFTRWDAKD | -0.137 |
| HMGGEIGSGKNGYVAFYKGKKVDVKADSMYGAQKTAAKYFNAKKEYDVNVVLAEVDGKQYVQS | 0.547 |
